Measured values: publication PMC12482190, “Characterization of PPE19 as a novel mediator of Mycobacterium tuberculosis-macrophage interactions” (mSphere, 2025)

Target: T1, PPE19-GST-bio (biotinylated PPE19 with an N-terminal GST tag) (Mycobacterium tuberculosis H37Rv, UniProt P9WI25 1-396)
T1 construct: also called biotinylated PPE19-GST; not shown: GST, N-terminal, kept
T1 sequence: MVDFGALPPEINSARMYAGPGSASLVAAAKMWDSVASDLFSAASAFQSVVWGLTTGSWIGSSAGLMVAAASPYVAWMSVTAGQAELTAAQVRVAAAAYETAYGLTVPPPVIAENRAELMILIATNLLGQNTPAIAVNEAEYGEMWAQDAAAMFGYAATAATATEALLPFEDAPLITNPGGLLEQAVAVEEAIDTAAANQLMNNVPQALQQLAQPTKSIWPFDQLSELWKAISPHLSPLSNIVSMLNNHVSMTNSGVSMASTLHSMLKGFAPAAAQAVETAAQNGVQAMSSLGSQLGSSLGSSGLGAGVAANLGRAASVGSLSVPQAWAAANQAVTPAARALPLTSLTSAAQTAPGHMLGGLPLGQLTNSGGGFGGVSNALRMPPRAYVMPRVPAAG
Assay: AlphaScreen or HTRF
Settings: both partners purified

B1: PE13-His (PE13 with a polyhistidine affinity tag) (natural protein)
chain: MSFVMAYPEMLAAAADTLQSIGATTVASNAAAAAPTTGVVPPAADEVSALTAAHFAAHAAMYQSVSARAAAIHDQFVATLASSASSYAATEVANAAAAS
B1: binds.
